B1: NGF: mouse 2.55 NGF, nerve growth factor (protein, UniProt P01139 122-241, looked up)
Beta-nerve growth factor: SSTHPVFHMGEFSVCDSVSVWVGDKTTATDIKGKEVTVLAEVNINNSVFRQYFFETKCRASNPVESGCRGIDSKHWNSYCTTTHTFVKALTTDEKQAAWRFIRIDTACVCVLSRKATRRG
B2: BDNF: brain-derived neurotrophic factor (protein, UniProt P23560 19-247, looked up)
Neurotrophic factor BDNF …: APMKEANIRGQGGLAYPGVRTHGTLESVNGPKAGSRGLTSLADTFEHVIEELLDEDQKVRPNEENNKDADLYTSRVMLSSQVPLEPPLLFLLEEYKNYLDAANMSMRVRRHSDPARRGELSVCDSISEWVTAADKKTAVDMSGGTVTVLEKVPVSKGQLKQYFYETKCNPMGYTKEGCRGIDKRHWNSQCRTTQSYVRALTMDSKKRIGWRFIRIDTSCVCTLTIKRGR

Assays:
Assay type in all cases: cell-based, rat
[1] = test system: low-buoyancy cortical cells; test: Acquisition of neuron competence by low-buoyancy cortical cells in culture; details: 10% serum or 5 ng/ml PDGF instead of FGF-2
Excerpt: Tissue dissection: Three areas were dissected from adult rat brains as follows. Rats (170-190 g Fisher 344 males or females, Harlan) were deeply anesthetized with a mixture of ketamine, xylazine, and acepromazine. Animals were decapitated and whole brains removed. First, ˜1.5 mm of each optic nerve were harvested rostral to, but not including, the optic chiasma. The brain was then bisected longitudinally and each hippocampal lobe separated from the overlaying cortical white matter using the natural separation line along the alveus hippocampus. The white matter of the fimbria and subiculum was removed as much as possible. Some white matter remained. Finally, a 1.5 mm wide cortical ribbon containing parietal and frontal segments was dissected longitudinally, proximal to the central fissure. The pial and callosal surfaces were trimmed from each cortical ribbon to remove a majority of the meninges and white matter.
Tissue dissociation and fractionation: Tissues were finely minced and digested in a solution of papain (2.5 U/ml, Worthington), DNAse (250 U/ml, Worthington), and neutral protease (1 U/ml Dispase, Boehringer) dissolved in Hanks balanced salt solution, as described in Palmer T D, Ray J, Gage F H (1995), FGF-2-Responsive Neuronal Progenitors Reside in Proliferative and Quiescent Regions of the Adult Rodent Brain. Mol Cell Neurosci 6:474-486; and Gage F H, Coates P W, Palmer T D, Kuhn H G, Fisher L J, Suhonen J O, Peterson D A, Suhr S T, Ray J (1995), Survival and differentiation of adult neuronal progenitor cells transplanted to the adult brain. Proc Natl Acad Sci USA 92:11879-11883. Cells and tissue fragments were washed 3 times with Dulbecco's Modified Eagles Medium (DMEM) containing 10% […] bovine serum (defined FBS, Hyclone). Whole digested tissue was then suspended in DMEM 10% FBS, filtered through a sterile 107 μm nylon mesh and thoroughly mixed with an equal volume of PERCOLL™ (polyvinylpyrrolidone-coated silica colloids) solution. The PERCOLL™ (polyvinylpyrrolidone-coated silica colloids) solution was made by mixing 9 parts of PERCOLL™ (polyvinylpyrrolidone-coated silica colloids) (Pharmacia) with 1 part 10X phosphate buffered saline (PBS, Irvine Scientific). The cell suspension was then fractionated by centrifugation for 30 minute, 18°C., at 20,000×g. […]
To determine how rapidly cortical cells acquired the competence to differentiate into neurons in culture, cells were isolated and cultured in growth medium for various times, allowed to differentiate in differentiation medium and then evaluated for the presence of neurons. […] Cultures were also treated with BrdU for the first 10 days and the newly generated neurons were evaluated for evidence of cell division. All neurons scored were labeled (>99%).

[2] = test system: ACSC cultures; test: Neuronal transmitter phenotype after RA priming and neurotrophin treatment (GABA, TH, calbindin, AChE); details: neurotrophin after 6 days RA
Procedure: (§1) Cell Culture. For proliferating conditions, clonal stem cells (AP14) were cultured in Dulbecco's Modified Eagles Medium/Ham's F12 (DMEM/F12, 1:1) containing N2 supplement (Gibco BRL, Gaithersburg, Md.) and 20 ng/ml rhFGF-2 (provided by A. Baird, Prizm Pharmaceuticals Inc., La Jolla, Calif.). Culture dishes (Becton Dickinsin Labware, Lincoln Park, N.J.) were coated with polyomithine and mouse laminin as previously described by Ray, et al., Proliferation, differentiation and long-term culture of primary hippocampal neurons, Proc Natl Acad Sci USA 90:3602-3606 (1993). For differentiation experiments, cells were plated into polyornithine/laminin coated glass chamber slides (Nunc, Naperville, Ill.) at a density of 2.5—103 per cm2. The cells were incubated for 24 hrs in normal N2 medium containing 20 ng/ml FGF-2, and then the medium was replaced by N2 medium containing 0.5% […] (FBS) and 0.01% DMSO (control solvent) or […] all-trans retinoic acid (Sigma, St. Louis, Mo.). For further differentiation, the medium was replaced by N2 medium containing 0.5% FBS and one of the following: sterile water (control solvent), mouse 2.55 NGF (50 ng/ml, Boehringer Mannheim, Indianapolis, Ind.), rhBDNF (20 ng/ml, Alomone Labs, Jerusalem, Israel), rhNT-3 (40 ng/ml, Genentech, South San Francisco, Calif.). The medium was replaced every two days. For inhibition of the tyrosine kinase activity of the Trk receptors, K-252a (100 nM, Calbiochem, San Diego, Calif.) was added to the medium.
Immunofluorescence. An immunofluorescent staining was performed as previously described (Gage F H, Ray J, Fisher L J (1995a) Isolation, characterization, and use of stem cells from the CNS. Annu Rev Neurosci 18: 159-192. or Gage F H, Coates P W, Palmer T D, Kuhn H G, Fisher L J, Suhonen J O, Peterson D A, Suhr S T, Ray J (1995b) Survival and differentiation of adult neuronal progenitor cells transplanted to the adult brain. Proc Natl Acad Sci USA 92:11879-11883.) Briefly, after fixation with 4% paraformaldehyde in PBS, cells were incubated with primary antibodies overnight at […]. Then the cells were incubated for 1 hr with secondary antibodies (Jackson Immunoresearch) conjugated to fluorescein isothiocyanate, or cyanin-3. Primary antibody concentrations used are as follows (mo=mouse monoclonal, rb=rabbit polyclonal, gp=guinea pig polyclonal): mo a-MAP2abc, 1:5000 (Sigma), mo a-MAP2ab, 1:500 (Sigma), mo a-p75NGFR, 1:10 (192-IgG hybridoma supernatant, a gift from C. E. Chandler, Stanford Univ., Stanford, Calif.), rb a-c-Fos (4),1:4000 (Santa Cruz Biotechnology, Santa Cruz, Calif.), gp a-GFAP, 1:500 (Advanced Immunochemicals, Long Beach, Calif.), rb a-GABA, 1:5000 (Sigma), mo a-TH, 1:500 (Boehringer Mannheim), rb a-calbindin 1:1000 (SWant, Bellinzona, Switzerland). Labeled cells were visualized using confocal scanning laser microscopy (Zeiss Axiovert, Thornwood, N.Y. and Bio-Rad MRC1000, Hemel Hempstead, UK) and color images were generated using Adobe Photoshop (Adobe Systems, Mountain View, Calif.). Both the average percentage and the absolute number +/− SEM of immunofluorescent cells were determined by counting 10 or 50 high power fields (20×) visualized under fluorescence. The total number of cells was counted using nuclear counterstaining with 4′,6diamidino-2-phenylindole (DAPI, Sigma). Statistical analyses were carried out using ANOVA test.
Histochemical Staining for AChE. Cholinergic cells were identified by histochemical staining for AChE by a modification of the staining method of Geneser-Jensen and Blackstadt. Distribution of acetylcholinesterase in the hippocampal region of the guinea pig. I. Entorhinal area parasubiculum, and pre-subiculum, Z Zellforsch 114:460-481(1971). […]

[3] = test system: c-fos mRNA (Trk receptor tyrosine kinase signaling); test: RT-PCR analysis of neurotrophin-dependent c-fos induction; details: for induction of c-fos mRNA: proliferating controls treated with neurotrophin
Procedure: as §1
Reverse Transcription-PCR Analysis. Total RNA from stem cells was isolated using RNeasy Total RNA Kits (Qiagen, Chatsworth, Calif.) according to manufacturer's instructions. Fifty nanograms of total RNA was reverse transcribed using avian myeloblastosis virus reverse transcriptase (Promega, Madison, Wis.) with random hexamers ([…]) as primers in a […] reaction mixture. For PCR amplification, two sets of specific oligonucleotide pairs ([…]) were used: one directed to the transcript of interest, and one for a constitutively expressed transcript, either ribosomal protein L27 or L27a. Reactions were performed in a […] reaction mixture containing 10 mM Tris-Cl (pH 8.4), 50 mm KCl, 1.5 mM MgC12, […] each of the four dNTPs, 2 mCi of [a-32P]dCTP and 5 units of Taq polymerase (Promega) using a thermal cycler (Perkin-Elmer, Foster City, Calif.) with a regimen of 1 min at 94° C., 2 min at 60° C. (55° C. for trk receptors) and 2 min at 72° C. for 23 cycles Fifty microliters of each reaction was analyzed by electrophoresis on 8% polyacrylamide gels followed by autoradiography. […] Under these conditions, the L27 amplification product was directly proportional to the amount of input RNA, up to 50 ng total RNA. Oligonucleotide primers used are as follows: […]
RA treatment also results in neurotrophin-dependent induction of c-fos. Transient and rapid induction of immediate early genes such as c-fos is a well-characterized response to extracellular stimuli in neural cells. c-fos is induced after neurotrophin treatment in cultured […] hippocampal or cortical cells and the signaling cascade following c-fos induction is considered to be integral to subsequent steps in differentiation. To determine whether upregulation of mRNAs for trk receptors and p75NGFR observed in the stem cell cultures results in the acquisition of functional Trk-dependent stimulation of c-fos, mRNA was examined by RT-PCR analysis after stimulating RA-treated cells with neurotrophins. […]

Row | Molecule | neuron formation in control cultures [1] | number of AChE-positive cells [2] | number of TH-positive cells [2] | number of calbindin-positive cells [2] | number of neurons expressing GABA [2] | induction of c-fos mRNA [3] | c-fos induction by each neurotrophin (NGF, BDNF, NT-3) ([3]; pretreatment with K-252a (100 nM))
1 | PDGF | no neurons were formed |  |  |  |  |  | 
2 | NT-3: Neurotrophin-3 |  | small increases over control cultures | increased | increased | increased | slightly increased | 
3 | COC(=O)[C@@]1(O)C[C@H]2O[C@]1(C)n1c3ccccc3c3c4c(c5c6ccccc6n2c5c31)C(=O)NC4 [K-252a, reference compound] |  |  |  |  |  |  | blocked
4 | B1 |  | small increases over control cultures | not |  |  | minimal | 
5 | B2 |  | most effective agent | increased | increased | increased | minimal | 

Reference: US6767738B1, “Method of isolating adult mammalian CNS-derived progenitor stem cells using density gradient centrifugation” (The Salk Institute for Biological Studies, priority 1999, dated 2004)
